Test: soluble fraction after stress (log2 fold change); higher = more stays soluble; pooled small domains, quantitative proteomics
Conditions: stress: pH 4
How it was run: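 Pooled custom libraries of small protein domains were subjected to pH 4 and measured by high-throughput quantitative proteomics. The log2 fold change in soluble amount per domain is reported, higher values meaning more remained soluble. This is used as a measure of aggregation propensity.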

HMVRDPYELLEVPREATPDEIKSAFRKLAARHHPDRNPDDPGAQERFKEINAAYQLLSDPQKRAMFDRFGA
soluble fraction (log2): 0.331

HMVRKIQAKLVLRLHAQGLSGRAIARSQGMSRRSVSDVLDAARAVGVGWDDVTGKTDGEVYALLFPGRG
soluble fraction (log2): 0.0261

HMVRKIRARLVLQLRAEGLSGRAIAGSQGMSRKSVTAVLDAADRAGIGWDEIAERSEGEVYALLFPGRG
soluble fraction (log2): -1.18

HMVRQKYKSNFITVGDKSLTIHDWAQRLNLSQYALRNRYKEFGKEWVEKAIKTILETGDNTHIYK
soluble fraction (log2): 0.0662

HMVRSLADQVYERLRRNIVSGDLAPNARIVELDIAAQMGTSQGPVREALQRLEREGLVQRRAHSATFVTD
soluble fraction (log2): -0.324

HMVRVSELAIEPRLVVEETATGFVGAVVRYANGLIELEDRHGAVRTFPLGPGYLVDGRPVSLVKPT
soluble fraction (log2): -0.35

HMVSEDELLARIALLPYPQAKILLEERLSHDPANAKVRQLYLELAKKSGDHTEVTRHNSLLY
soluble fraction (log2): 0.0149

HMVSKIEAPLPGIILSVDVKEGDTVKAGDKLMVMEAMKMENAILAETNGVVKSIKVKIQDSVLQGDILAEI
soluble fraction (log2): -1.07

HMVSKSDVQRALEKVEPVLRKLGGSTVEKVRVMARQATLVFEMLKSWWKGEIDLPWKTVAAMTVTLLYL
soluble fraction (log2): -0.322

HMVSLNKTEFIAVKKASASELRDKINSLGLDVLKDATISADARTNQIIATGPKYALEQIKMLVVGLDVSS
soluble fraction (log2): 0.313

HMVSLRQQVYDYLRSQMNQGELRPGSAINLGEMSSRFGISRTPLREALLQLETEGFVTIYPRKGIIVN
soluble fraction (log2): -0.243

HMVSLTGEWRPSKDALDILITKGGINPNFIDDAVPEFILYWRDRGDVSNTWDSKFIQHVRRQWQFYTGI
soluble fraction (log2): -1.66

HMVSMSFDDYVNDAKEYESEGDKDKAYNSYLEAYKLNKSSEEVLDYLIDNTEDVTLKLNYVYEYLDL
soluble fraction (log2): -0.32

HMVSNFEAEFGRHFAIFFPGSEFTELKLRLLEEGAELIDPIRDTPFERFFFKDPNGYIFEVIDKE
soluble fraction (log2): -2.33

HMVSNRMVYSDFQQKWINNQVESINVNADKMTIEVTTQDEKKYTVYAPSSMIEFLNEQYPKDDIKIEYVAP
soluble fraction (log2): -0.94

HMVSPLEKSQSFGSFEISREFARTLGLTSARNWENWAASDSRPINIPYSPNVFYKNKGWIDWSDWLGTE
soluble fraction (log2): -0.124

HMVSRQINVIPDDLAGLRLDQALAHLFPQHSRSRLKEWLLEDIIIVQGGPKRPKDIVSGGEIVEIKL
soluble fraction (log2): -1.2

HMVSYTLPTLHTGKNWYVDFTAYDPAEQKMKRKKYMLDGISKITERRKRAVDIIATVTARLRSGWNPWA
soluble fraction (log2): 0.0419

HMVTARMPDLFGLDEATAQRMVSNAGLTLKTEYAYSDQAEGYVFDQTPEANAEVRRGGTVTAMIS
soluble fraction (log2): -0.375

HMVTEIDYGAFIKMTEEGNIGEVKIEDNQIVFTDKENKAIYKTGIMPDSDLTQRLYDSGAVFA
soluble fraction (log2): -1.27

HMVTEKPLYRDELMDHDTVWVEPISMDSHLRMELRGWYHVKNRFVENEVGQRFYFDFYDIKWLAFTNGP
soluble fraction (log2): ≥ 0.43

HMVTINTASLEKAIADAKAVVKESYTTDSYNAMKAVLDEAEDLLKEEAQDQDTIDAKTEALNAAIEALVKR
soluble fraction (log2): -0.337

HMVTLPLLKRGHTGLPVKALQTLLVLRGMSVDVDGSFGEKTESAVRTFQTAAKILSDGEVGKDTWKALI
soluble fraction (log2): -0.911

HMVTPPMVVVDVQGEVKTPGVYHLPTNSRVNDAIKAAGGPKQSADLSYINQARMVKDGEQIYVEKKL
soluble fraction (log2): 0.0679

HMVTTDPIADMLTRIRNASSQKHKSVDVPASKEKLAIAQILFEEGYIKSFEEIKEENNQGVIRITLKYTEK
soluble fraction (log2): -0.0598

HMVTVPNYSDPRQYVEWGNANGITINRAVGDTIASMSGRVQDVRDSNGNSVIGKKVKKGSTVTVYIYFLK
soluble fraction (log2): -0.0785

HMVTVSAVNITPKGHTTVGFTDRSVNPPSNYYLRVGESADGWTVKDADFDDEIATLEKDGVAITLKL
soluble fraction (log2): -0.548

HMVTYELTEDEKFIVSLLEKENSQPIGALKDKSALSGKKWDAAMKGLAKHGLTKVVVDGDNKLVVL
soluble fraction (log2): -0.184

HMVVEDDTVLQAVKQAIEENPEAVSDYFEGKSKALNFLVGQVMRITRGKADPAKTNQMVVEELKNR
soluble fraction (log2): 0.112

HMVVMKGKVKWFNKNKGYGFIITDDNKEYFVHWKSIVTNSPRELKVLEQDELVTFDLMETDKGIQAINII
soluble fraction (log2): -1.22

HMVVPELNLAQQDVLRALRQRGRATADHLSVDTHRPVSEVMGILLGLEIAEVLYRVEGGWFVPKTAR
soluble fraction (log2): -1.04

HMVVSDKIAFSSFLKSVEDGRVVEVEITGNDIRGILSDGTVFNTYAPNDPNLVEKLTSKGVNITALPKE
soluble fraction (log2): 0.0738

HMVVYQRVHDEILQALKDNVYPVGTLLPPEPELERIYSVSRTTVRRAIAKLSEEGYVQVRQGYGTMVLKN
soluble fraction (log2): 0.22

HMWGAYHDGQVVKFPKKVTVYVIDGQYKRPLANEFVLKFLNYKTSDIIIDKDGNLNNYKNGAVVEH
soluble fraction (log2): -0.332

HMWMQKILGNYIAARRKELGMTQANLAEKIHVTDKAVSRWERGVGLPDIENLEALAKALEVSLVSLMQGKT
soluble fraction (log2): 0.22

HMWNGIVDAGKARQHLMNLSQLGVGRRAVAAASDVAETVLMDIRSGTKTRIRARTERQILAVTPEMA
soluble fraction (log2): 0.22

HMWNTADDIKEAIWKLIQSEDPKKPYSDLKISQLLLEKEMKISRRTVAKYRKEMGILGTYSRK
soluble fraction (log2): 0.23

HMWQPIKLDRGDWQNSLQVGDRVFVRGIPRPVEILSAVDEENNIEVLMGTMRAKIPVYQLDKPAENFIDTT
soluble fraction (log2): -0.711

HMWQVVEVDYGTFMSMTEDGQVGRVEIQEQENLILFTDQEETTVYKTAMVDDPDLTARLHDAGIPFYGQE
soluble fraction (log2): -2.29

HMWSGEPFLDELRHADTLLETDPEAALAEYRALADKGSAAAMMALGNAYASGSHVARDEGEAEHWYRRAA
soluble fraction (log2): -0.752

HMWSLLVILQLREGGQRFSQLQRAIPDISQRMLTQTLRKLERDGLVSRKVTPSTPPRVDYAITELGH
soluble fraction (log2): -0.556

HMWSQEPEYRPLYNSMDGFDAGQVVEMLQQSRIDYKVEPNSGALLVRSEDLADARLRLASAGISP
soluble fraction (log2): -0.959

HMYAEVTITIEKGMTSDSVSKLLYKAGIVDDAKEFNNYIIKAGKSTKILIGEFTIQKGASYDDIIKIIA
soluble fraction (log2): -0.133

HMYAGTVTQVKNNKVMLEFDGETVNVGDQFFILNSDGKKVAIVEITAAKNKKALANVLKGKAVVDGTTQAK
soluble fraction (log2): -0.404

HMYAVDTIHKGTITEMTDKGAVVSLGDNIDGFAPARQLVKEDGTTLKLGDTADFKVIEFSKATKRITLSH
soluble fraction (log2): 0.094

HMYAVQKGDTLKKIADQFGISVDTIKWANDMKGDALSIDQELKIP
soluble fraction (log2): 0.0154

HMYDAEAINKFFDIENWDFGETFYFQELSAYIMNQLSPKLVTILIVPRQTTQAFGSLFEIKSEPDEIFAS
soluble fraction (log2): -0.0578

HMYDDEELDVLAHRPIESYTDAELAMLREVAETLLETDYEGWLKSLSMRGILLPPEILQLVT
soluble fraction (log2): -1.29

HMYDDLEPFDANGRLRWSDKELILAFGRHRGVTLQTLELNDPGYLRWLLSGNGPLEQQDRKRLEDILES
soluble fraction (log2): -1.36

HMYDEKTLRKAVLDYVRDNDDGRLDLMKIDSYLTSRYGNIDYAALGYNRLSMFISSFPELRRNSNYVTLRK
soluble fraction (log2): -0.158

HMYEDNERNLYSVVINFLNEHKIKISREAINLVINRSSGDKHNLKQELNKILNYSFSNKNITYETIEKLSN
soluble fraction (log2): 0.0456

HMYEDNERSLVPIVQNFLKEKKILLSNQSINLIVQRSGGDRINLYNELQKIESFSKNQKKIDIGDIIKLTN
soluble fraction (log2): 0.169

HMYEDSNQSLNFFAIKFIKEKNIKISQETTNLIVERARGDRGNLINELQKLEALSLTRKKITQEDVFNLTN
soluble fraction (log2): 0.22

HMYEGLILINKYDSLVSAKLETNKIKSLGLFFEDMEEKIAVFSGPFKNNDINLKLDFLIRNGYLDAKIY
soluble fraction (log2): -1.53

HMYEIEDIKEKLLDLLANSKTGFSGLEISNRLGINRITVSKYLNIFSAEGLIKQKNIGNVIIWFVEDGIE
soluble fraction (log2): -0.791

HMYEVDGLGIRIAQLRKKQDLTQEAFARTLGVSPQAVSKWETGIGYPDITLLPQIAKELGVSIDQLFGRN
soluble fraction (log2): 0.0751

HMYFGDADGNKKVDAADALYLKRHLADWEDYRELPQKTNVSWMDEASPANLMILERHIAGWKDYEMLPYT
soluble fraction (log2): -0.19

HMYFMDEETWESKKTLLNDWYEANPEYADRRAISDGLFKIGDLQPDFRRRHWGSIGVIFADIPNSPMG
soluble fraction (log2): -1.37

HMYGHKLDSYESYVVSELRRWPFLSAPQIHDRLKEHFSDLPLVTPKTVFNFVNRLRLTHSLPKE
soluble fraction (log2): -0.215

HMYGLSFLIGFTVVDRTYGDIGKVTAIDDSTVNTLMAVGDRLIPAQEAFITKIDNTKKIIYTQLPEGLL
soluble fraction (log2): -0.512

HMYGTQTVNRGAVQPGMLVKHKDSTWTASANARGRLYLHRGVEMTYTRDLLVEVYLNGLGNGL
soluble fraction (log2): -0.342

HMYHADLIGLRVETAAGEKLGTVKAVHNFGAGDVIEITGAEDKDGLMVPFTAEVVPEVDIENGRIVVS
soluble fraction (log2): -0.868

HMYHKKEKAQAANIEERIMILLSDGKHHHITEIKAIYVDEVITLNILEEMLAEEKVIIEGDMIMLVE
soluble fraction (log2): -1.47

HMYKLTTQRRAILDVIIENHDKHLNPEEIYDIVKEKYPEIGIATVYRTLQLLEKLNIIYRLNFDDGYNRYE
soluble fraction (log2): -1.12

HMYKLTYVVDGEVYLEETVSYGSKIAAAPAPEKEGYTFSGWEGLPEVMPAKDVTVSGSFTVN
soluble fraction (log2): -0.0428

HMYKMKDRIKKIMEMQRTTQQDFADQLKIAPATLSSIFTGRTRPTLAIVDAIKSRFPQISTDWLMFGKGDM
soluble fraction (log2): 0.22

HMYKNAFITYDNNLYYLGSDSKMAIGWQSIGGNTYYFRNWGGMITGKQVIDGKTYVFDEDGKLVQSPD
soluble fraction (log2): -0.807

HMYLNYQTIGKRIRLLRKQQHLTQMTLAEMVDKSPTYISLVENGQKGPSLETLIDVANALKVTMDVLLAEY
soluble fraction (log2): -1.58

HMYLPPYMEVRAVMILDGKPMALMYIEGEGDGLIVSPGYKFDNGKGKVVSITPTKVVVLWAGTKMELG
soluble fraction (log2): -1.17

HMYLYHDLSDEAKAMGDEYVSVEHLVLALIRYPNNAVKELFREFGITRERFLQVLSTIRGNQRVTSDNPEA
soluble fraction (log2): -0.194

HMYMFSGQRLKSLRKEKKMSQEKLGSLLNISKVAVSNWENAKSFPTMDNLNELAKVLEVEPHYF
soluble fraction (log2): -0.41

HMYMKLSVKDAALFLSVSPETVYRWVKQEEIPYHTVNDQLRFNRAELLEWATARSLEVSPDLFVP
soluble fraction (log2): -1.53

HMYMWQVEDLIRANGLDIERIKDSIIRPYELDEERKRELTQWYEDLIDMMRREGVAQSGHLQIN
soluble fraction (log2): -2.24

HMYNMEELAGHTEKVYNSLPEELKLVIKLREIENMSYDEISLKTGMPIGTVRSRLHRAREILVDSLKDY
soluble fraction (log2): -0.491

HMYQNRLFYTLKTGETVADLSKSQDINLSTIWSLNKHLYSSESEMMKAAPGQQIILPLKKLP
soluble fraction (log2): 0.135
